Laboratory results reported in patent publication US20230285504A1, “INHIBITION OF REPERFUSION INJURY WITH A PSD-95 INHIBITOR” (NONO INC., priority 2020, published 2023).
Read-outs that look alike come from different tables or passages of the source.

Experiments:
[1] = system: Tat-NR2B9c
[2] = system: embolic middle cerebral artery occlusion (eMCAO)
Procedure: Nerinetide (7.6 mg/kg) was administered as an intravenous bolus injection either 30 minutes before, or simultaneously with, the onset of a 60-minute infusion of rt-PA (5.4 mg/kg with a 10% bolus followed by 90% over 60 minutes). […] Experimental timeline. […] Hemispheric Infarct volume measurements 24 hours after eMCAo. […] Percentage of hemispheric brain swelling 24 hours after eMCAo and (D). Neurological scores 24 hours after eMCAo. Treatments were administered intravenously at the times indicated in (A). Bars represent mean±SD, with all individual data points plotted. Significant differences (in B) and (in C) are indicated with an asterisk when compared to the control group/nerinetide alone or with a number sign when compare to the thrombolytic agent (one-way ANOVA post hoc Tukey's correction for multiple comparisons test, *P<0.01 or #P <0.01, respectively) N=12-15 animals/group. Significant differences (in D) are indicated with an asterisk when compared to the control group/nerinetide alone or with a number sign when compare to the thrombolytic agent (Kruskal-Wallis analysis of variance on ranks with a post-hoc Dunn's correction for multiple comparisons test, *P<0.01 or #P<0.01, respectively).
To test this, male Sprague-Dawley rats (10-12 weeks old; 270-310 g; Charles River, Montreal, QC, Canada) were subjected to embolic middle cerebral artery occlusion (eMCAO), produced by the introduction of an autologous blood thrombus into the middle cerebral artery. Reperfusion was achieved by treatment with intravenous alteplase at a total dose of 5.4 mg/kg beginning at 90 minutes after ischemia onset. Alteplase was administered using the human injection protocol in which 10% of the total dose is given as a bolus, with the remainder 90% of the dose being given over a 60-minute infusion. The dose of alteplase was 6 times the human dose, in anticipation that the rat fibrinolytic system may be less sensitive to human recombinant tPA. […] Nerinetide was administered either 30 minutes prior to, or concurrently with, the start of the alteplase administration (FIG. 7A) at a dose of 7.6 mg/kg. […] Infarct volumes, hemispheric swelling and neurological scores were evaluated at 24 hours.

[3] = cited from earlier work

With plasmin the “cleavage of nerinetide by plasmin, LC/MS of fragments after incubation in PBS at 37 C” value [1] was “Cleavage products consistent with these sites of cleavage were observed after incubating nerinetide (18 mg/mL) with plasmin (1 mg/mL) in phosphate-buffered saline at 37 °C and analyzing the samples by LC/MS”.

With alteplase [reference compound] the “reduction of infarction volume” value ([2]; alteplase alone 5.4 mg/kg given at 60 min after eMCAO) was 26%, the “reduction of infarction volume” value ([2]; alteplase alone 5.4 mg/kg given at 90 minutes after eMCAO) was 18% and the “mortality in pilot studies” value ([2]; rat, alteplase 10x human dose, hemorrhagic conversions of strokes) was “unacceptable mortality rates”. For the same molecule, the “plasma half-life in human plasma” value ([3]; in vivo) was “about five”.

B1: Plasmin: serine protease activated by thrombolytics to dissolve fibrin blood clots; cleaves nerinetide (protein, UniProt P00747 20-580; P00747 581-810, looked up)
Plasmin heavy chain A: EPLDDYVNTQGASLFSVTKKQLGAGSIEECAAKCEEDEEFTCRAFQYHSKEQQCVIMAENRKSSIIIRMRDVVLFEKKVYLSECKTGNGKNYRGTMSKTKNGITCQKWSSTSPHRPRFSPATHPSEGLEENYCRNPDNDPQGPWCYTTDPEKRYDYCDILECEEECMHCSGENYDGKISKTMSGLECQAWDSQSPHAHGYIPSKFPNKNLKKNYCRNPDRELRPWCFTTDPNKRWELCDIPRCTTPPPSSGPTYQCLKGTGENYRGNVAVTVSGHTCQHWSAQTPHTHNRTPENFPCKNLDENYCRNPDGKRAPWCHTTNSQVRWEYCKIPSCDSSPVSTEQLAPTAPPELTPVVQDCYHGDGQSYRGTSSTTTTGKKCQSWSSMTPHRHQKTPENYPNAGLTMNYCRNPDADKGPWCFTTDPSVRWEYCNLKKCSGTEASVVAPPPVVLLPDVETPSEEDCMFGNGKGYRGKRATTVTGTPCQDWAAQEPHRHSIFTPETNPRAGLEKNYCRNPDGDVGGPWCYTTNPRKLYDYCDVPQCAAPSFDCGKPQVEPKKCPGR
Plasmin light chain B: VVGGCVAHPHSWPWQVSLRTRFGMHFCGGTLISPEWVLTAAHCLEKSPRPSSYKVILGAHQEVNLEPHVQEIEVSRLFLEPTRKDIALLKLSSPAVITDKVIPACLPSPNYVVADRTECFITGWGETQGTFGAGLLKEAQLPVIENKVCNRYEFLNGRVQSTELCAGHLAGGTDSCQGDSGGPLVCFEKDKYILQGVTSWGLGCARPNKPGVYVRVSRFVTWIEGVMRNN
modifications: Plasmin
notes: cleaves nerinetide
In the case of B1, the “half-life in human plasma” value ([3]; has been reported) is given as 4 to 8 h.
